The values that follow come from patent US20230038638A1, “COMPLEMENT FACTOR I-RELATED COMPOSITIONS AND METHODS” (published 2023).

The target of assay [1] is soluble human C3b (human) (UniProt P01024).
Assay [2] addresses T1, human C4b (human) (UniProt P0C0L4).
T1 sequence: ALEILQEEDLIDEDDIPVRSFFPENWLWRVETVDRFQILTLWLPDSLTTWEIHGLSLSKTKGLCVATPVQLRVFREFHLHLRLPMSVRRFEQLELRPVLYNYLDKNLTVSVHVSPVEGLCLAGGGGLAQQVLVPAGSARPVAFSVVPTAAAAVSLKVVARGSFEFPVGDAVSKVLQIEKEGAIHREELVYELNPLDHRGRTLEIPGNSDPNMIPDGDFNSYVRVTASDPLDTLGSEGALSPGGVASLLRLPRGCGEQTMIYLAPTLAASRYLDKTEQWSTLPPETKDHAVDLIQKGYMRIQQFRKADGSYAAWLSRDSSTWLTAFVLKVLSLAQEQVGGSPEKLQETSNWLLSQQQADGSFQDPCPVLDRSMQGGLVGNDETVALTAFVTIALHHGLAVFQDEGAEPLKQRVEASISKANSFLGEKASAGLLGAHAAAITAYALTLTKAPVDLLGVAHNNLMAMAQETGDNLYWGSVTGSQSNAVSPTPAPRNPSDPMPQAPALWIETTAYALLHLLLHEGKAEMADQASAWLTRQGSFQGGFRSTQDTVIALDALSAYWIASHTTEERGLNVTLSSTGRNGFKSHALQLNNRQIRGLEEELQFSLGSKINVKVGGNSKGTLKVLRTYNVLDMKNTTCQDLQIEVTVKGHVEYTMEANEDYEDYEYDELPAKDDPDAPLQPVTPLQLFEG

Assay [3] deals with soluble human C3b (human) (UniProt P01024). The source holds these as a separate data set.
Assay [4] deals with T1, human C4b (human). The source holds these as a separate data set.

In the case of CFI-HSA variant G406P (enzyme), the iC3b Screen Ref Fold (fold of reference) in assay [1] was found to be 0.47. Besides, in assay [2], the C4b Screen Ref Fold (fold of reference) was determined as 0.49. Besides, the iC3b EC50 in assay [3] amounted to 35.9 nM. In assay [4], this substance displayed a C4c EC50 greater than 1000 nM.

As for CFI-HSA variant G406Q (enzyme), the iC3b Screen Ref Fold (fold of reference) in assay [1] was 0.68. In addition, the C4b Screen Ref Fold (fold of reference) in assay [2] amounted to 0.91. The iC3b EC50 in assay [3] amounted to 30.7 nM. For the same substance, the C4c EC50 in assay [4] was greater than 1000 nM.

As to CFI-HSA variant G406R (enzyme), in assay [1], the iC3b Screen Ref Fold (fold of reference) was found to be 1.31. For the same substance, the C4b Screen Ref Fold (fold of reference) in assay [2] stood at 1.31. In addition, in assay [3], the iC3b EC50 is 19 nM. The C4c EC50 (nM) in assay [4] came out at 474 nM.

For CFI-HSA variant G406S (enzyme), in assay [1], the iC3b Screen Ref Fold (fold of reference) was 0.4. The C4b Screen Ref Fold (fold of reference) in assay [2] was determined as 1.83. Further, in assay [3], the iC3b EC50 was 32.6 nM. The C4c EC50 in assay [4] is 315 nM.

On to CFI-HSA variant G406T (enzyme), for which, in assay [1], the iC3b Screen Ref Fold (fold of reference) was 0.52. In assay [2], the C4b Screen Ref Fold (fold of reference) is 1.09. In addition, the iC3b EC50 in assay [3] was 52.4 nM. In assay [4], this substance gave a C4c EC50 greater than 1000 nM.

On to CFI-HSA variant G406V (enzyme), for which the iC3b Screen Ref Fold (fold of reference) in assay [1] turned out to be 0.44. The C4b Screen Ref Fold (fold of reference) in assay [2] was 1.09. The iC3b EC50 in assay [3] turned out to be 43.1 nM. The C4c EC50 in assay [4] was greater than 1000 nM.

Consider CFI-HSA variant G406W (enzyme), for which the iC3b Screen Ref Fold (fold of reference) in assay [1] amounted to 0.38. For the same substance, the C4b Screen Ref Fold (fold of reference) in assay [2] was found to be 1.57. The same substance showed an iC3b EC50 in assay [3] of 65.5 nM. For the same substance, in assay [4], the C4c EC50 is greater than 1000 nM.

As for CFI-HSA variant G406Y (enzyme), the iC3b Screen Ref Fold (fold of reference) in assay [1] stood at 0.39. For the same substance, the C4b Screen Ref Fold (fold of reference) in assay [2] was 0.43. Besides, in assay [3], the iC3b EC50 was 14.9 nM. The substance further displayed a C4c EC50 in assay [4] greater than 1000 nM.

Turning to CFI-HSA variant K418G; D425G (enzyme), the iC3b Screen Ref Fold (fold of reference) in assay [1] was 0.19. In assay [2], the C4b Screen Ref Fold (fold of reference) came to 0.84. The substance also registered an iC3b EC50 in assay [3] of 28.5 nM. This substance also came in with a C4c EC50 in assay [4] of 865 nM.

On to CFI-HSA variant K504F (enzyme), for which the iC3b Screen Ref Fold (fold of reference) in assay [1] amounted to 0.13. For the same substance, the C4b Screen Ref Fold (fold of reference) in assay [2] came to 0.29. In addition, the iC3b EC50 in assay [3] was 77.5 nM. This substance also returned a C4c EC50 (nM) in assay [4] greater than 1000 nM.

In the case of CFI-HSA variant K504I (enzyme), in assay [1], the iC3b Screen Ref Fold (fold of reference) was determined as 0.1. In addition, the C4b Screen Ref Fold (fold of reference) in assay [2] is 0.05. This substance also came in with an iC3b EC50 in assay [3] of 176 nM. Further, in assay [4], the C4c EC50 (nM) is greater than 1000 nM.

As for CFI-HSA variant K504M (enzyme), the iC3b Screen Ref Fold (fold of reference) in assay [1] came out at 0.52. The C4b Screen Ref Fold (fold of reference) in assay [2] was determined as 0.14. The iC3b EC50 in assay [3] came out at 43.8 nM. In addition, the C4c EC50 (nM) in assay [4] is greater than 1000 nM.

On to CFI-HSA variant K504N (enzyme), for which the iC3b Screen Ref Fold (fold of reference) in assay [1] turned out to be 0.18. For the same substance, in assay [2], the C4b Screen Ref Fold (fold of reference) worked out at 0.57. In assay [3], this substance yielded an iC3b EC50 of 76.8 nM. In assay [4], this substance displayed a C4c EC50 (nM) greater than 1000 nM.

Take “CFI-HSA variant K504R; D425R; E457G; E461Q; N531G (enzyme)”: the iC3b Screen Ref Fold (fold of CFI-HSA wild type) in assay [1] was determined as 1.59. For the same substance, in assay [2], the C4b Screen Ref Fold (fold of CFI-HSA wild type) came to 4.19. This substance also came in with an iC3b EC50 in assay [3] of 4.2 nM. Moreover, the C4c EC50 (nM) in assay [4] stood at 8.4 nM.

In assay [1], “CFI-HSA variant K504R; E457G; E461Q; N531G (enzyme)” showed an iC3b Screen Ref Fold (fold of CFI-HSA wild type) of 2.98. Further, the C4b Screen Ref Fold (fold of CFI-HSA wild type) in assay [2] was determined as 4.18. The iC3b EC50 in assay [3] came out at 3 nM. The substance further registered a C4c EC50 (nM) in assay [4] of 8.2 nM.

Substance “CFI-HSA variant K504R; E530F; D425K; P558G (enzyme)” displayed an iC3b Screen Ref Fold (fold of CFI-HSA wild type) in assay [1] of 3.07. Moreover, the C4b Screen Ref Fold (fold of CFI-HSA wild type) in assay [2] amounted to 0.08. Also, the iC3b EC50 in assay [3] amounted to 5.2 nM. The substance also registered a C4c EC50 (nM) in assay [4] greater than 1000 nM.

For “CFI-HSA variant K504R; E530F; D425K; P558S (enzyme)”, the iC3b Screen Ref Fold (fold of CFI-HSA wild type) in assay [1] was 2.91. Moreover, the C4b Screen Ref Fold (fold of CFI-HSA wild type) in assay [2] worked out at 0.05. Besides, in assay [3], the iC3b EC50 stood at 5.7 nM. This substance also yielded a C4c EC50 (nM) in assay [4] greater than 1000 nM.

In turn, “CFI-HSA variant K504R; E530F; D425K; P558S; E457G; E461Q; N531G (enzyme)” registered an iC3b Screen Ref Fold (fold of CFI-HSA wild type) in assay [1] of 1.98. In addition, in assay [2], the C4b Screen Ref Fold (fold of CFI-HSA wild type) was found to be 3.92. This substance returned an iC3b EC50 in assay [3] of 2.4 nM. Moreover, the C4c EC50 (nM) in assay [4] stood at 6.9 nM.

Substance “CFI-HSA variant K504R; E530F; D425R; P558G (enzyme)” had an iC3b Screen Ref Fold (fold of CFI-HSA wild type) in assay [1] of 2.97. Further, the C4b Screen Ref Fold (fold of CFI-HSA wild type) in assay [2] worked out at 0.02. Further, in assay [3], the iC3b EC50 was determined as 6.2 nM. For the same substance, the C4c EC50 (nM) in assay [4] is greater than 1000 nM.

As for “CFI-HSA variant K504R; E530F; D425R; P558S (enzyme)”, the iC3b Screen Ref Fold (fold of CFI-HSA wild type) in assay [1] was found to be 3. The C4b Screen Ref Fold (fold of CFI-HSA wild type) in assay [2] came out at 0.09. In assay [3], this substance had an iC3b EC50 of 5.2 nM. Further, in assay [4], the C4c EC50 (nM) was greater than 1000 nM.

In assay [1], “CFI-HSA variant K504R; E530F; E457G; E461Q; N531G (enzyme)” showed an iC3b Screen Ref Fold (fold of CFI-HSA wild type) of 1.8. Further, in assay [2], the C4b Screen Ref Fold (fold of CFI-HSA wild type) came to 3.91. Besides, the iC3b EC50 in assay [3] turned out to be 4.6 nM. The substance also came in with a C4c EC50 (nM) in assay [4] of 16.2 nM.

“CFI-HSA variant K504R; P558S; E457G; E461Q; N531G (enzyme)” showed an iC3b Screen Ref Fold (fold of CFI-HSA wild type) in assay [1] of 2.12. Also, the C4b Screen Ref Fold (fold of CFI-HSA wild type) in assay [2] came out at 4.03. Besides, the iC3b EC50 in assay [3] was 5.5 nM. In assay [4], this substance yielded a C4c EC50 (nM) of 9 nM.

As for CFI-HSA variant K504S (enzyme), the iC3b Screen Ref Fold (fold of reference) in assay [1] is 0.25. In assay [2], the C4b Screen Ref Fold (fold of reference) worked out at 0.45. The iC3b EC50 in assay [3] was 43.7 nM. The substance further showed a C4c EC50 (nM) in assay [4] greater than 1000 nM.

In the case of CFI-HSA variant K504T (enzyme), the iC3b Screen Ref Fold (fold of reference) in assay [1] worked out at 0.73. For the same substance, the C4b Screen Ref Fold (fold of reference) in assay [2] worked out at 0.1. In assay [3], the iC3b EC50 is 43.5 nM. The substance also yielded a C4c EC50 (nM) in assay [4] greater than 1000 nM.

Regarding CFI-HSA variant K504V (enzyme), in assay [1], the iC3b Screen Ref Fold (fold of reference) is 0.21. The C4b Screen Ref Fold (fold of reference) in assay [2] was 0.07. Moreover, the iC3b EC50 in assay [3] was found to be 104 nM. This substance gave a C4c EC50 (nM) in assay [4] greater than 1000 nM.

Regarding CFI-HSA variant K504W (enzyme), the iC3b Screen Ref Fold (fold of reference) in assay [1] was 0.12. Besides, the C4b Screen Ref Fold (fold of reference) in assay [2] is 0.27. The iC3b EC50 in assay [3] amounted to 48.7 nM. Moreover, the C4c EC50 (nM) in assay [4] was greater than 1000 nM.

Take CFI-HSA variant K504Y (enzyme): the iC3b Screen Ref Fold (fold of reference) in assay [1] turned out to be 0.18. Moreover, in assay [2], the C4b Screen Ref Fold (fold of reference) came to 2.86. In addition, the iC3b EC50 in assay [3] came to 51.6 nM. This substance also yielded a C4c EC50 (nM) in assay [4] of 196 nM.

In turn, CFI-HSA variant N422G (enzyme) displayed an iC3b Screen Ref Fold (fold of CFI-HSA wild type) in assay [1] of 1.34. In addition, the C4b Screen Ref Fold (fold of CFI-HSA wild type) in assay [2] turned out to be 0.88. Besides, in assay [3], the iC3b EC50 worked out at 25.5 nM. The C4c EC50 (nM) in assay [4] stood at 238 nM.

For the substance “CFI-HSA variant N422K; E457G; E461Q; Q467K; N531G (enzyme)”, the iC3b Screen Ref Fold (fold of CFI-HSA wild type) in assay [1] is 2.84. In assay [2], the C4b Screen Ref Fold (fold of CFI-HSA wild type) turned out to be 3.85. In assay [3], this substance displayed an iC3b EC50 of 2.5 nM. In assay [4], the C4c EC50 (nM) was 5 nM.

Consider CFI-HSA variant N460G (enzyme), for which the iC3b Screen Ref Fold (fold of CFI-HSA wild type) in assay [1] was 1.61. Besides, in assay [2], the C4b Screen Ref Fold (fold of CFI-HSA wild type) amounted to 1.69. The same substance displayed an iC3b EC50 in assay [3] of 17.5 nM. Further, the C4c EC50 (nM) in assay [4] amounted to 156 nM.
